Values of other authors in PMC10119362.

Target: Amyloid-beta monomer (Homo sapiens) (UniProt P05067)

Kd: 0.023 µM
Substance: Gantenerumab
